Assays:
[1] = molecular target: T1, 人PD-1抗原 (ACRO, Cat.PD-1-H5221) (human, UniProt Q15116 25-167); experiment: indirect ELISA, human PD-1 coated
T1 construct: Bought antigen coated on ELISA plates; also called human PD-1 antigen; hPD-1

[2] = molecular target: T2, 人PD-1抗原 on Jurkat/PD-1 cells (human, UniProt Q15116 25-288); experiment: indirect flow cytometry on Jurkat/PD-1 cells
T2 construct: whole, on cells; Used for the flow cytometry cells and for the Jurkat reporter cells that carry PD-1; also called 过表达人PD-1抗原的Jurkat细胞; Jurkat/hPD-1 NFAT-Luciferase
T2 sequence (Q15116 25-288): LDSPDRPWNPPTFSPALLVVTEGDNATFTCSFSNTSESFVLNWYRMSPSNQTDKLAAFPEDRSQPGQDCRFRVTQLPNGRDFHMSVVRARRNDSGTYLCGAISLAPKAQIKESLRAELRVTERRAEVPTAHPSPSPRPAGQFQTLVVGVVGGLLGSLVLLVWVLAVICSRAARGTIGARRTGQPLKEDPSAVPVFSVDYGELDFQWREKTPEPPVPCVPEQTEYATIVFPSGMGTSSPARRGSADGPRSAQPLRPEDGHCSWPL

T1 sequence (Q15116 25-167 limits assumed): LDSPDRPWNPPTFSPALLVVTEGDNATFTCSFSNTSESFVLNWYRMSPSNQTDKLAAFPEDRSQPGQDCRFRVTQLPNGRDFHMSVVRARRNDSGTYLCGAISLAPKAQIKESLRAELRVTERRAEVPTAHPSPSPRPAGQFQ

binding result [1]: binds
binding result [2]: binds
B1: hmp12 (antibody, V domains shown)
VH: EVQLVESGGGLVKPGGSLRLSCAASGFTFSSYDMSWVRQAPGKGLEWVATISGGGSYTYYADSVKGRFTISRDNAKNSLYLQMNSLRAEDTALYYCASPYAGYFDVWGQGTMVTVSS
VL: DIQMTQSPSSLSASVGDRVTITCSASSSISSNYLHWYQQKPGKAPKLLIYRTSNLQSGVPARFSGSGSGTSYSLTISSLQPEDFATYYCQQGSSIPLTFGQGTKLEIK
notes: also called 人源化抗体hmp12

Source: patent CN113234160A (GUANGZHOU EXCELMAB BIOMEDICAL TECH CO LTD, dated 2021)
